Assay: yeast display, Sf9 membrane polyspecificity reagent, FACS + sequencing; frameworks hold sequencing errors
Procedure, shortened: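 Genes from sorted yeast were amplified by colony PCR, read by MiSeq 2 × 250 sequencing and filtered on CDR length. These cells carried a synthetic nanobody library in Saccharomyces cerevisiae BJ5465 and were sorted by FACS into low and high (top ~1%) gates on anti-HA and streptavidin fluorescence. Polyreactivity is labelled according to the gate of origin.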

Row | Sequence | polyreactivity (PSR sort gate)
1 | QVQLVESGGGLVQAGGSLRLSCAASGRTFYYYAMGWYRQAPGKERELVAVISWDDGSTYYADSVKGRFTISRDNAKNTVYLQMNSLKPEVTAVYYCAAYDYLDYADDYWGQGTQVTVSS | low polyreactivity
2 | QVQLVESGGGLVQAGGSLRLSCAASGSIFYHYVMGWYRQAPGKERELVAAISSSGRTYYADSVKGRFTISRDNAKNTVYLQMNSLKPEDTAVYYCAAYQKYYLRKYEYWGQGTQVTVSS | low polyreactivity
3 | QVQLVESGGGLVQAGGSLRLSCAASGSIFTGYAMGWYRQAPGKERELVAAISNSGTSTYYADSVKGRFTISRDNAKNTVYLQMNSLKPEDTAVYYCNTVGHRWLSDDDYWGQGTQVTVSS | low polyreactivity
4 | QVQLVESGGGLVQAGGSLRLSCAASGSTFYVYAMGWYRQAPGKERELVAAIDGSTGSTYYADSVKGRFTISRDNAKNTVYLQMNSLKPEDTAVYYCNAESIPPYSITKFDYWGQGTQGTVSS | low polyreactivity
5 | QVQLVESGGGLVQAGGSLRLSCAASGRIFYPYAMGWYRQAPGKERELVAVISYSGGGTYYADSVKWRFTISRDNAKNTVYLQMNRMKPEDTAVYYCAAYADYSYYVYDYWGQGTQVTVSS | high polyreactivity
6 | QVQLVESGGGLVQAGGSLRLSCAASGRIFYYNAMGWYRPAPGKERELVATITGSGGSTYYADSVKGRFTISRDNAKNTVYLQMNSLKPEDTAVYYCNATRWYYDFYKLDYWGQGTKVTVSS | low polyreactivity
7 | QVQLVESGGGLVQAGGSLRLSCAASGRTFPGNDMGWYRQAPGKERELDAAISSDDSTYYADSVKWRFTMSRDNAKNTVYLKMNSLKPEDTAVYYCNAEYYEGYIGVPGSYWPYEYWGQGTQVTVSS | low polyreactivity
8 | QVQLVESGGGLVQAGGSLRLSCAASGLTFSKYAMGWYRQAPGKERELVAAITRGDRTYYSDSVRGRFTISRDNAKNTVYLQMNRLKPEDTAVYYCAARQYYWGQGTQVTVSS | high polyreactivity
9 | QVQLVESGGGLVQAGGSLRLSCAASGFTFRSNVMGWYRQATGKERELVAAISWSGGSTYYADSVKGRFTISRDNAKNNVYLQMNSLKPEDTAVYYCATVQVVGPWSYRKLDYWGQGTQVTVSS | high polyreactivity
10 | QVQLVESGGGLVQAGGSLRLSCAASGSIFGYNAMGWYRQAPGKERELVATISSGGSTNYADSVKGRFTISRDNAKNTVYLQMNSLKPEDTAVYYCAKEYGSIIPYDYWGQGTQVTVSS | low polyreactivity
11 | QVQLVESGGGLVQAGGRLRLSCASSGIIFRYNAMGWYRQAPGKERELVAAISSSGTTNYADSVKGRFTISRDNAKNTVYLQMNSLKPEDTAVYYCAARRSYARRFKNSMEYWGQGTQVTVSS | high polyreactivity
12 | QVQLVESGGGLVQAGGSLRLSCASSGNIFYLYAKGWYRQARGKERELVAAIRGSGSTYYADSVKGRFTISRDNAKNTVYLQMNSLKPEDTAVYYCNARVRSQYLYSGTALGYYYWGQGTQVTVSS | high polyreactivity
13 | QVQLEESGGGLVQAGGSLRLSCPASGSTFGKNAMGWSRQAPGKERELVASITWRGGCTYYADSVKGRITISRDNAKNTVFLQMNSLKPEDTAVYYCATNWHIHIGSYKYYYWGQGTQVTVSS | low polyreactivity
14 | QDQLVESGGGLVQAGGTLRLSCAASGRTFYLYAMAWYRQAPGKERELVAAISSGASTYYADSVKGSFTISRDIAKNTVYLQMNSLKPDDTAVYYCAAEFCPQWSGYEYWGQGTLVTVSS | high polyreactivity
15 | QVQLVESGGGLVQAGGSLRLSCAASGSIFSIYAMGWYRQAPGKERELVAAISWNGGSTYYADSVKGRFTISRDNAKNTVYLQMNSLKPEDTAVYYCAVDEGPTKVRFGYWGQGTQVTVSS | high polyreactivity
16 | QVQLVESGGGLVQAGGSLRLSCAASGIIFKYYAMGSYRQAPGKERELVAAITRSGGSTYYADSVKGRFTISRDNAKNTVYLQMNSLKPVDTGVYYCAAQTGYSYGITWQFTKYNYWGQGTQVTVSS | low polyreactivity

Row | Sequence | polyreactivity (PSR sort gate)
17 | QVQLVESGGGLVQAGGSLRLSCAASGRTFKRYAMGWYRQAPGKERELVATISGNGGRTYYADSVKGRFTISRDNAKNTVYLQMNSLKPEDTAVYYCAALLYIRSVGYDYWGQGTQVTVSS | low polyreactivity
18 | QVQLVESGGVLVQAGGSLRLSCAASGSIFASNAMGWYRQAPGKEREFVAAISWSGTRTYYADSVKGRFTISRDTAKNTVYLQMNSLKPEDTAVYYCAALTVLRNDYWGLGTQVTVSS | low polyreactivity
19 | QVQLVESGGGLVQAGGSLRLSCAAYGFTFYPYAMGWYRQAPGKEREVVAASNSGGSTYYADSVKGRFTISRDNAKNTVYLQMNSLKPEDTAVYYCSAYGKRGAVAFYYWGQGTQVTVSS | high polyreactivity
20 | QVQLVESGGGLVQAGGSLRLSCAASGSIFAYYAMGWYRQAPGKERDLVAAISYSGDGTYYADSVKGRFTISRDNAKNTVYLQMNSLKREDTAVYYCATQIYPLDFYQGDWNDYWGQGTQVTVSS | low polyreactivity
21 | QVQLVESGGGLVQAGGSLRLSCAASGFTFLRYAMGWYRPAPGKERELVAVITYGGGSTYYADSVKGRFTISRDNAKNTVYLQMNSLKPEDTAVYYCALYPRRAGGDYWGQGTQVTVSS | high polyreactivity
22 | QVQLVESGGGVVQAGGSLRLSCAGSGFTFPSYAMGWYRQAPGKERELVAAISVGGGSTYYADSVKGRFTISRDKAKNTVYLQMNSLKPEDTAVYYCNADYWYWVWLVGGNVDLDYWGQGTQVTVSS | high polyreactivity
23 | QVQLVESGGGLGQAGGSLRLSCAASGFNFYGYAMGWYRQAPGKERELVAAISSGGGRTYYADSVKGLFTISRDNAKNTVYLQMNSLKPEDTAVYYCAAKVYFYTGGGGEDYWGQGTKVTVSS | low polyreactivity
24 | QVQLVESGGGLVQAGGSLRLSSASSGRIFAIYVMGWYRQAHGKERELVAAITSGGNTNYADSVKGRFTISRDNAKNTVYLQINSLKPEDSAVYYCAAFYYRRSFTLSYSSFDYWGQGTQVTVSS | low polyreactivity
25 | QVQLVESGGGLVQAGGSLRLSCAASGITFCYNTMGWYRQAPGKERELVAAISGSGGRTYYADSVKGRFTISRDNAKNTVYLQMNSLKPEDTAVYDCAARWQIWSSLYDYWGQGTQVTVSS | high polyreactivity
26 | QVQLVESGGGLVQAGGSHRLSCAATGNTFHTNAIGWYRQAPGKERELVAAITGGGSTYYADSVKGRFTISRDNAKNTVYLQMNSLKPEDTAVYYCNTDVPYGLDVSDTIDYYYWGQGTQVTVSS | low polyreactivity
27 | QVQLVESGGGLVQAGGSLRLSCAASGFIFNRYAMGRYRQAPGKERELVAAISSGGNTHYADSVKWRFTISRDNAKNTVLLQMNSLKPEDTAVYYCAKAFRHSTFFAPYDYWGQGSQVTVSS | low polyreactivity
28 | QVQLVESGGGLVQARGSLRLSCAASGNTFVTNAIGWYRQAPGKVRELVAAINSSGGSTYYADSVKGRFTISRDNAKNTVYLQMNSLKPEDTAVYYCAADPLGITSGYGYWGQGTQVNVSS | low polyreactivity
29 | QVQLVESGGGLVQAGGSLRLSCAASGCIFVRYAMGWYRQAPGKERELVAAISRSGGSTSYADSVKGRFTISRDNAKNTVYLQMNSLKPEDTAVYYCAVVRGGRGYPGYDYWGQGTQVTVSS | low polyreactivity
30 | QVQLVESGGGLVQAGGSLRLSCAASGFTLRSNVMGWSRQAPGKERELVAGISQSGGRTFYADSVKGRFTISRDNAKNTVYLQMNSLKPEDTAVYYCAARRYAVEGSKNYYWGQGTQVTVSS | low polyreactivity
31 | QVQVVESGGGIVQAGGSHRLSCAAYGSIFLPYAMGWYRQAPGKDRELVAAITRGGDSTYADSVKGRFTISRDNAMYTVDLQMNSLKRDDTAVFYCAAGAGFESDYWGQGTQVTVAS | low polyreactivity

Reference: the nanobody polyreactivity screen of Harvey et al. (2022)
